Consider one protein from paper PMC5759761 (Nature, 2017).

This series deals with the molecule itself. The series can be described thus: cryo-EM structure.

B1: E. coli MsbA (natural protein)
chain: MHNDKDLSTWQTFRRLWPTIAPFKAGLIVAGVALILNAASDTFMLSLLKPLLDDGFGKTDRSVLVWMPLVVIGLMILRGITSYVSSYCISWVSGKVVMTMRRRLFGHMMGMPVSFFDKQSTGTLLSRITYDSEQVASSSSGALITVVREGASIIGLFIMMFYYSWQLSIILIVLAPIVSIAIRVVSKRFRNISKNMQNTMGQVTTSAEQMLKGHKEVLIFGGQEVETKRFDKVSNRMRLQGMKMVSASSISDPIIQLIASLALAFVLYAASFPSVMDSLTAGTITVVFSSMIALMRPLKSLTNVNAQFQRGMAACQTLFTILDSEQEKDEGKRVIERATGDVEFRNVTFTYPGRDVPALRNINLKIPAGKTVALVGRSGSGKSTIASLITRFYDIDEGEILMDGHDLREYTLASLRNQVALVSQNVHLFNDTVANNIAYARTEQYSREQIEEAARMAYAMDFINKMDNGLDTVIGENGVLLSGGQRQRIAIARALLRDSPILILDEATSALDTESERAIQAALDELQKNRTSLVIAHRLSTIEKADEIVVVEDGVIVERGTHNDLLEHRGVYAQLHKMQFGQ
For the protein B1, the “stoichiometry N” value was 2.

The stoichiometry N is the number of molecules, sites or subunits per partner or assembly.
